Here are results for 167 variants from the RNAGym collection of RNA variant scans (doi:10.7554/elife.80360).

To fix the notation:
B1: HDV Ribozyme (parent)
chain: GGCCGGCAUGGUCCCAGCCUCCUCGCUGGCGCCGGCUGGGCAACAUUCCGAGGGGACCGUCCCCUCGGUAAUGGCGAAUGGGACCCA

The data set covers variants of B1. In words: self-cleavage, relative activity (ratio to wild type); higher = more cleavage; co-transcriptional.
U60G G68C: the self-cleavage was determined as 0.965.
Take U60G G68A: the self-cleavage was found to be 1.02.
For U60A U69G the value was 1.01.
Consider C61A A71C, for which the self-cleavage was determined as 1.12.
For U60G C86A the value was 1.01.
As for U60G C86U, the figure is 0.959.
For C62A C66A the value was 0.32.
Regarding C62A C66G, the self-cleavage came out at 0.623.
For C62G A71C the value was 0.443; for C62G A71U, 0.489; for U60C C62G, 1.07.
As for U60C C62U, the figure is 0.997.
C61U A83G: the self-cleavage came to 0.692.
For C61G G73C the value was 0.264; for C61G G73U, 0.327; for U60C C61A, 0.831.
For U60C C61G the value was 0.751; for U60A U72C, 0.415; for U60A U72G, 0.467.
For U60C G81C the value was 0.291; for U60C C75G, 0.128; for U60C C75A, 0.237.
As for C61U C86G, the self-cleavage is 0.847.
As for C61U C86U, the figure is 1.03; as for C61U G73C, 0.629.
As for C61U G73U, the figure is 0.383; as for U60G U72G, 0.646.
For C62G U79G the value was 1.03; for C62G U79A, 0.489.
Turning to C61A U72A, the self-cleavage came to 0.745.
For C62G G73U the value was 0.193.
In the case of U60C C86U, the self-cleavage was determined as 0.88.
For U60C C86A the value was 0.831; for C62U C66A, 0.815.
As for C62U C66G, the figure is 0.746; as for C62A C75A, 0.0314; as for U60C C66A, 1.14.
As for C62G C75G, the figure is 0.26; as for C62G C75A, 0.17; as for C62A U79A, 0.636.
As for C62A U79C, the self-cleavage came to 0.339.
As for C62A A77U, the figure is 0.45; as for C62A A77G, 1.17; as for C63A A71U, 1.11.
As for C63A A71G, the self-cleavage was 0.504.
As for C62G C63A, the figure is 0.639.
For C62G C63U the value was 0.604.
For C62G C63G the value was 0.706.
For the variant U60C C63U, the self-cleavage was determined as 0.98.
Consider C62U G67A, for which the self-cleavage turned out to be 1.12.
For U60G A70C, the self-cleavage was found to be 0.95.
For U60G A70G the value was 0.911; for U60C A70C, 1.04; for C62G U69C, 0.534.
For C62U C63G the value was 0.654.
For C62U C63U the value was 1.11; for C62U C63A, 0.927; for C61U A77U, 0.475.
As to C62G A87G, the self-cleavage was 0.716.
For the variant C62U A87U, the self-cleavage worked out at 1.08.
For C61G C66A the value was 0.674; for C61G C66G, 0.745; for C63A C64G, 0.506.
For C63A C64U, the self-cleavage was found to be 0.903.
In the case of C62A C84A, the self-cleavage was determined as 0.862.
As for C62A C84G, the figure is 0.764; as for C62A C85A, 0.767.
As for C62A U69G, the self-cleavage was 1.03.
As for C62A U69A, the figure is 0.997; as for C62A U69C, 0.882; as for C61G C64A, 0.582.
For C61G C64G the value was 0.527; for U60C A78C, 0.19; for U60C A78U, 0.229.
In the case of U60C U65G, the self-cleavage was 0.944.
On to U60C U65C, for which the self-cleavage came to 1.01.
As for C62A A78G, the figure is 0.78; as for C62A A78U, 0.185; as for C62A A78C, 0.101.
For C62A G81A the value was 0.332; for C61A G80U, 0.203.
In the case of C61A G80C, the self-cleavage worked out at 0.201.
For C61A G80A the value was 0.41.
As for C61A C86G, the figure is 0.908; as for C61U G82C, 0.281; as for C61A G76A, 1.02.
As for C61A G76C, the figure is 1.08; as for C62A G73C, 0.465; as for C62A G73A, 0.545.
In the case of C61U C64A, the self-cleavage amounted to 0.89.
For C61A G81U the value was 0.347; for C61A G81A, 0.354.
For U60C U79C the value was 0.326.
Turning to C62G G80A, the self-cleavage stood at 0.185.
For C62G G80U the value was 0.185; for C61G U72C, 0.401; for C61G U72G, 0.332.
As for C61G U72A, the figure is 0.457.
For the variant C62U U79C, the self-cleavage is 0.432.
As for C62U U79G, the figure is 0.831.
For C62A U65G the value was 0.359; for C62A C64U, 0.892.
For U60G C85G the value was 1.09; for U60G C85A, 0.767; for U60G C85U, 1.15.
Take C61A G82U: the self-cleavage amounted to 0.507.
For the variant C61A C63A, the self-cleavage was 0.689.
As for C61A C63U, the figure is 1.07.
As to C61A C63G, the self-cleavage stood at 0.499.
As for U60G C84A, the figure is 0.752.
As for U60G C84G, the figure is 0.902; as for U60G C84U, 0.798.
As for C61A U65A, the figure is 0.774; as for C61A U65G, 0.92.
With U60C G76C, the self-cleavage is 1.16.
For U60C G76A the value was 1.05; for U60C G76U, 1.05.
For C61U U65G, the self-cleavage worked out at 0.864.
As for C61U U65A, the figure is 0.616.
As for C62U A83G, the figure is 0.818; as for C61A C66U, 1.1.
For C61A C66A the value was 0.992; for C61A C66G, 0.942; for U60G C75A, 0.229.
U60G C75U: the self-cleavage is 0.231.
As for U60G C75G, the figure is 0.119; as for C62A G74C, 0.113.
For U60G A71U the value was 0.918; for U60G A71C, 1.21; for C61U C84U, 0.636.
With C62G G74C, the self-cleavage is 0.172.
For C62G G74U the value was 0.372; for C62G G74A, 0.402; for C61A C64G, 0.791.
For C61A C64A the value was 0.96; for C61G G68A, 1.02; for U60G U69A, 0.965.
For U60A U79A the value was 0.923.
As for U60A U79C, the self-cleavage is 0.515.
Regarding C63A A78U, the self-cleavage is 0.269.
For C63A A78G the value was 0.404; for C61U C62A, 0.978.
As for C61U C62U, the figure is 0.644; as for C61U C62G, 0.694; as for C62U G82U, 0.402.
For C62U C75A the value was 0.166.
Consider C62U C75G, for which the self-cleavage came to 0.406.
For U60C A83U the value was 0.653; for C62G G81U, 0.133; for U60C G74U, 0.348.
As for U60C G74A, the figure is 0.591.
For C62G A78U the value was 0.297; for C62G A78G, 0.745.
On to C61G C75U, for which the self-cleavage turned out to be 0.101.
As for C62U G74U, the figure is 0.679; as for U60C C84G, 0.856.
As for C61U A71G, the figure is 0.997.
Take C61U A71U: the self-cleavage turned out to be 1.02.
For C61A C85G the value was 0.988.
As for C61G C63U, the figure is 1.02; as for C61G C63A, 0.718.
As for C61U G76U, the figure is 1.06; as for C61U G76C, 1.05.
C61U G76A: the self-cleavage was 1.19.
For C62U G68A the value was 0.946.
Turning to U60G C66U, the self-cleavage worked out at 1.08.
On to C62A G82A, for which the self-cleavage was found to be 0.35.
